Reference: patent US10792857B2, “Polymeric microneedles and rapid additive manufacturing of the same” (The University of North Carolina at Chapel Hill, priority 2015, dated 2020)

Columns and labels:
[1] = value used for insulin loading calculation; cited from earlier work
[2] = Insulin release from CLIP fabricated PAA cylinders dissolved in water (sandwich ELISA); assay type: physicochemical
Description: Insulin (Sigma) was incorporated into test parts with identical dimensions described in FIG. 22A using CLIP and a resin containing 87.1 wt % acrylic acid monomer, 2.52 wt % DPO photo initiator, 10.4 wt % acetic acid, 0.17 wt % human insulin. Resin of an identical composition, excluding the […] insulin, was used as a negative control for insulin incorporation and release. Parts were fabricated using continuous printing on the CLIP7 apparatus (Carbon 3D) with a drawspeed of 100 mm/hr and 14.5 mW/cm2 light intensity. CLIP fabricated PAA parts were dissolved in 2 mL of water and the solution was then centrifuged at 20,000×g for 10 minutes to remove any insoluble material and insulin release was quantified using an sandwich ELIS A method (3A6 anti-insulin coating antibody, 8E2-HRP detection antibody from AbCam) combined with and an insulin standard curve. Insulin was readily detected in dissolved CLIP fabricated PAA cylinders made with insulin containing resin (FIG. 25) with an average of 0.5 unit/mL insulin (1 unit/cylinder), which was close to the theoretical insulin loading levels of 1 unit per cylinder based on PAA cylinder dry weight (20-22 mg). No insulin was detected in the supernatant of dissolved vehicle control cylinders (FIG. 25), validating the specificity of the ELISA-based insulin assay. […]

[3] = OVA-647 release from CLIP fabricated PAA cylinders dissolved in water (fluorescence plate reader); assay type: physicochemical; conditions: PAA cylinder from resin with 0.01 wt % OVA-647, dissolved in 2 mL of water, versus vehicle control cylinders
Description: Fluorescently labeled (Alexa Fluor® 647) model vaccine antigen ovalbumin (referred to as OVA-647) was incorporated into a PAA matrix using CLIP and a resin containing […] (Sigma), 2.3 wt % DPO photo initiator (Sigma), […], 0.01 wt % OVA-647 (Invitrogen). Resin of an identical composition, excluding the 0.01 wt % OVA-647, was used as a negative control for OVA-647 incorporation. The shape of the CLIP fabricated test parts was cylindrical with 3 mm diameter×3 mm height, containing a hollowed out center 1.5 mm diameter (FIG. 22A and FIG. 22B). Parts were fabricated using continuous printing on the CLIP7 apparatus (Carbon 3D) with a drawspeed of 100 mm/hr and 8.4 mW/cm2 light intensity. OVA-647 incorporation into CLIP fabricated PAA parts was confirmed using microscopy (FIG. 22C). The OVA-647 and vehicle control PAA cylinders were dissolved in 2 mL of water and the solution was then centrifuged at 20,000×g for 10 minutes to remove any insoluble material and OVA-647 release was measured using a fluorescence plate reader.
Referring to FIG. 23, vehicle PAA cylinders (containing 8.97 wt % water) or OVA-647 resin ([…] in water) were tested. Each bar represents an independent cylinder dissolved in 2 mL of water and the supernatant was measured for OVA-647 fluorescence. Values were normalized to a standard curve of soluble OVA-647. […]

Insulin: Human insulin (Sigma) incorporated into CLIP fabricated PAA cylinders
max solubility [1]: 10000 µg/mL
insulin release per cylinder ([2]; PAA cylinder dissolved in 2 mL of water): 1 unit/cylinder
insulin release, average concentration in dissolved cylinder solution ([2]; PAA cylinder from resin with 0.17 wt % human insulin, dissolved in 2 mL of water): 0.5 unit/mL

B1: OVA-647: Fluorescently labeled (Alexa Fluor 647) model vaccine antigen ovalbumin, incorporated into PAA cylinders (protein, UniProt P01012 2-386, looked up)
Ovalbumin: GSIGAASMEFCFDVFKELKVHHANENIFYCPIAIMSALAMVYLGAKDSTRTQINKVVRFDKLPGFGDSIEAQCGTSVNVHSSLRDILNQITKPNDVYSFSLASRLYAEERYPILPEYLQCVKELYRGGLEPINFQTAADQARELINSWVESQTNGIIRNVLQPSSVDSQTAMVLVNAIVFKGLWEKAFKDEDTQAMPFRVTEQESKPVQMMYQIGLFRVASMASEKMKILELPFASGTMSMLVLLPDEVSGLEQLESIINFEKLTEWTSSNVMEERKIKVYLPRMKMEEKYNLTSVLMAMGITDVFSSSANLSGISSAESLKISQAVHAAHAEINEAGREVVGSAEAGVDAASVSEEFRADHPFLFCIKHIATNAVLFFGRCVSP
modifications: Alexa Fluor 647 label
notes: Fluorescently labeled (Alexa Fluor 647) model vaccine antigen ovalbumin, incorporated into PAA cylinders
OVA-647 release (fluorescence in supernatant) [3]: readily detected above background florescence levels
